This passage reports fold enhancement of binding over mononucleosomes with only H3K4me3 results from PMC3135172.

The target in this assay is GST-tagged BPTF PHD-bromodomain (human). Description: pull-down.

In the case of “H4K16ac and H3K4me3 modified mononucleosome (from UniProt P62805 1-103) (complex)”, the fold enhancement of binding over mononucleosomes with only H3K4me3 was in the range of 2 to 3 fold.
